Reference: US6512097
Read-outs that look alike come from different tables or passages of the source.

Tests used:
[1] = target: T1, c-erbB-2 ECD with a Ser-Gly-His6 C-terminal fusion (UniProt P04626 23-652); test: SPR BIAcore
T1 construct: extracellular domain; Expressed from CHO cells, IMAC purified; coupled to a CM5 chip, coated on plates, or biotinylated with NHS-LC-biotin; also called c-erbB-2 extracellular domain; biotinylated c-erbB-2 ECD
Procedure: All assays were performed in triplicate. Briefly, […] of radioiodinated sFv was added to 5×10^6 SK-OV cells in the presence of increasing concentrations of unlabeled sFv from the same preparation. After a 30 minute incubation at 20° C., the samples were washed with PBS at 4° C. and centrifuged at 500 g. The amount of labeled sFv bound to the cells was determined by counting the pellets in a gamma counter and the K_a, and K_d were calculated using the EBDA program (V 2.0, G. A. McPherson, 1983). The K_d of all the other isolated sFv were determined using surface plasmon resonance in a BIAcore (Pharmacia). In a BIAcore flow cell, approximately 1400 resonance units (RU) of c-erbB-2 ECD (25 μg/ml in 10 mM sodium acetate, pH 4.5) was coupled to a CM5 sensor chip (Johnsson et al. (1991), supra). Association and dissociation-rates were measured under continuous flow of […] using a concentration range from 50 to 800 nM. Rate constant $kon$ was determined from a plot of (1(dR/dt))/t vs concentration (Karlsson et al. (1991), supra). Rate constant $Hoff$ was determined from the dissociation part of the sensorgram at the highest concentration of sFv analyzed.
Mutants obtained by combining mutations of C6MH3-B1 or C6MH3-B47 with mutations from D library clones (D1, D2, D3, D5, D6). Rate constants $kon$ and $koff$ were measured by SPR in a BIAcore, and the K_d calculated.

[2] = target: T1, c-erbB-2 ECD with a Ser-Gly-His6 …; test: SPR BIAcore; remark: listed apart in the source

Row | Kd [1] | Kd (C6.5)/Kd (mut) [1] | Kd (parent)/Kd (mut) [1] | koff [1] | kon [1] | Kd [2] | Kd (mutant)/Kd (C6.5) [2] | koff [2] | kon [2] | Binder
1 | 0.032 nM | 500 | 3.8 | 1.3e-05 s⁻¹ | 410000 M⁻¹ s⁻¹ |  |  |  |  | C6-B1D6 (scFv, Combined B1 and D6 mutations on C6ML3-9) scFv: QVQLLQSGAELKKPGESLKISCKGSGYSFTSYWIAWVRQMPGKGLEYMGLIYPGDSDTKYSPSFQGQVTISVDKSVSTAYLQWSSLKPSDSAVYFCARHDVGYCTDRTCAKWPEWMYPWGQGTLVTVSSGGGGSGGGGSGGGGSQSVLTQPPSVSAAPGQKVTISCSGSSSNIGNNYVSWYQQLPGTAPKLLIYGHTNRPAGVPDRFSGSKSGTSASLAISGFRSEDEADYYCASWDYTLSGWVFGGGTKLTVLG
2 |  |  |  |  |  | 280 nM | 17.5 | 0.138 s⁻¹ | 500000 M⁻¹ s⁻¹ | C6.5C100S/C100eS (scFv, C6.5 VH CDR3 scan mutant; Kabat numbering) scFv: QVQLLQSGAELKKPGESLKISCKGSGYSFTSYWIAWVRQMPGKGLEYMGLIYPGDSDTKYSPSFQGQVTISVDKSVSTAYLQWSSLKPSDSAVYFCARHDVGYSSSSNSAKWPEYFQHWGQGTLVTVSSGGGGSGGGGSGGGGSQSVLTQPPSVSAAPGQKVTISCSGSSSNIGNNYVSWYQQLPGTAPKLLIYGHTNRPAGVPDRFSGSKSGTSASLAISGFRSEDEADYYCAAWDDSLSGWVFGGGTKLTVLG
3 |  |  |  |  |  | 29 nM | 1.8 | 0.012 s⁻¹ | 410000 M⁻¹ s⁻¹ | C6.5N100dA (scFv, C6.5 VH CDR3 scan mutant; Kabat numbering) scFv: QVQLLQSGAELKKPGESLKISCKGSGYSFTSYWIAWVRQMPGKGLEYMGLIYPGDSDTKYSPSFQGQVTISVDKSVSTAYLQWSSLKPSDSAVYFCARHDVGYCSSSACAKWPEYFQHWGQGTLVTVSSGGGGSGGGGSGGGGSQSVLTQPPSVSAAPGQKVTISCSGSSSNIGNNYVSWYQQLPGTAPKLLIYGHTNRPAGVPDRFSGSKSGTSASLAISGFRSEDEADYYCAAWDDSLSGWVFGGGTKLTVLG
4 |  |  |  |  |  | 9.8 nM | 0.6 | 0.0042 s⁻¹ | 430000 M⁻¹ s⁻¹ | C6.5K100gA (scFv, C6.5 VH CDR3 scan mutant; Kabat numbering) scFv: QVQLLQSGAELKKPGESLKISCKGSGYSFTSYWIAWVRQMPGKGLEYMGLIYPGDSDTKYSPSFQGQVTISVDKSVSTAYLQWSSLKPSDSAVYFCARHDVGYCSSSNCAAWPEYFQHWGQGTLVTVSSGGGGSGGGGSGGGGSQSVLTQPPSVSAAPGQKVTISCSGSSSNIGNNYVSWYQQLPGTAPKLLIYGHTNRPAGVPDRFSGSKSGTSASLAISGFRSEDEADYYCAAWDDSLSGWVFGGGTKLTVLG
5 |  |  |  |  |  | 45 nM | 2.8 | 0.01 s⁻¹ | 220000 M⁻¹ s⁻¹ | C6.5D96A (scFv, C6.5 VH CDR3 scan mutant; Kabat numbering) scFv: QVQLLQSGAELKKPGESLKISCKGSGYSFTSYWIAWVRQMPGKGLEYMGLIYPGDSDTKYSPSFQGQVTISVDKSVSTAYLQWSSLKPSDSAVYFCARHAVGYCSSSNCAKWPEYFQHWGQGTLVTVSSGGGGSGGGGSGGGGSQSVLTQPPSVSAAPGQKVTISCSGSSSNIGNNYVSWYQQLPGTAPKLLIYGHTNRPAGVPDRFSGSKSGTSASLAISGFRSEDEADYYCAAWDDSLSGWVFGGGTKLTVLG
6 |  |  |  |  |  | 19 nM | 1.2 | 0.011 s⁻¹ | 590000 M⁻¹ s⁻¹ | C6.5H102A (scFv, C6.5 VH CDR3 scan mutant; Kabat numbering) scFv: QVQLLQSGAELKKPGESLKISCKGSGYSFTSYWIAWVRQMPGKGLEYMGLIYPGDSDTKYSPSFQGQVTISVDKSVSTAYLQWSSLKPSDSAVYFCARHDVGYCSSSNCAKWPEYFQAWGQGTLVTVSSGGGGSGGGGSGGGGSQSVLTQPPSVSAAPGQKVTISCSGSSSNIGNNYVSWYQQLPGTAPKLLIYGHTNRPAGVPDRFSGSKSGTSASLAISGFRSEDEADYYCAAWDDSLSGWVFGGGTKLTVLG
7 | 0.063 nM | 254 | 1.7 | 3.9e-05 s⁻¹ | 620000 M⁻¹ s⁻¹ |  |  |  |  | C6-B47D5 (scFv, Combined B47 and D5 mutations on C6ML3-9) scFv: QVQLLQSGAELKKPGESLKISCKGSGYSFTSYWIAWVRQMPGKGLEYMGLIYPGDSDTKYSPSFQGQVTISVDKSVSTAYLQWSSLKPSDSAVYFCARHDVGYCTDRSCAKWPEWMQMWGQGTLVTVSSGGGGSGGGGSGGGGSQSVLTQPPSVSAAPGQKVTISCSGSSSNIGNNYVSWYQQLPGTAPKLLIYGHTNRPAGVPDRFSGSKSGTSASLAISGFRSEDEADYYCASWDYTLSGWVFGGGTKLTVLG
8 | 0.068 nM | 235 | 1.6 | 4.8e-05 s⁻¹ | 710000 M⁻¹ s⁻¹ |  |  |  |  | C6-B47D1 (scFv, Combined B47 and D1 mutations on C6ML3-9) scFv: QVQLLQSGAELKKPGESLKISCKGSGYSFTSYWIAWVRQMPGKGLEYMGLIYPGDSDTKYSPSFQGQVTISVDKSVSTAYLQWSSLKPSDSAVYFCARHDVGYCTDRSCAKWPEWLHVWGQGTLVTVSSGGGGSGGGGSGGGGSQSVLTQPPSVSAAPGQKVTISCSGSSSNIGNNYVSWYQQLPGTAPKLLIYGHTNRPAGVPDRFSGSKSGTSASLAISGFRSEDEADYYCASWDYTLSGWVFGGGTKLTVLG
9 |  |  |  |  |  | 454 nM | 28.4 | 0.05 s⁻¹ | 110000 M⁻¹ s⁻¹ | C6.5F100lA (scFv, C6.5 VH CDR3 scan mutant; Kabat numbering; also called F1001A) scFv: QVQLLQSGAELKKPGESLKISCKGSGYSFTSYWIAWVRQMPGKGLEYMGLIYPGDSDTKYSPSFQGQVTISVDKSVSTAYLQWSSLKPSDSAVYFCARHDVGYCSSSNCAKWPEYAQHWGQGTLVTVSSGGGGSGGGGSGGGGSQSVLTQPPSVSAAPGQKVTISCSGSSSNIGNNYVSWYQQLPGTAPKLLIYGHTNRPAGVPDRFSGSKSGTSASLAISGFRSEDEADYYCAAWDDSLSGWVFGGGTKLTVLG
10 | 0.044 nM | 364 | 2.5 | 4.3e-05 s⁻¹ | 980000 M⁻¹ s⁻¹ |  |  |  |  | C6-B47D2 (scFv, Combined B47 and D2 mutations on C6ML3-9) scFv: QVQLLQSGAELKKPGESLKISCKGSGYSFTSYWIAWVRQMPGKGLEYMGLIYPGDSDTKYSPSFQGQVTISVDKSVSTAYLQWSSLKPSDSAVYFCARHDVGYCTDRSCAKWPEWLGVWGQGTLVTVSSGGGGSGGGGSGGGGSQSVLTQPPSVSAAPGQKVTISCSGSSSNIGNNYVSWYQQLPGTAPKLLIYGHTNRPAGVPDRFSGSKSGTSASLAISGFRSEDEADYYCASWDYTLSGWVFGGGTKLTVLG
11 | 0.051 nM | 314 | 2.2 | 3e-05 s⁻¹ | 590000 M⁻¹ s⁻¹ |  |  |  |  | C6-B47D6 (scFv, Combined B47 and D6 mutations on C6ML3-9) scFv: QVQLLQSGAELKKPGESLKISCKGSGYSFTSYWIAWVRQMPGKGLEYMGLIYPGDSDTKYSPSFQGQVTISVDKSVSTAYLQWSSLKPSDSAVYFCARHDVGYCTDRSCAKWPEWMYPWGQGTLVTVSSGGGGSGGGGSGGGGSQSVLTQPPSVSAAPGQKVTISCSGSSSNIGNNYVSWYQQLPGTAPKLLIYGHTNRPAGVPDRFSGSKSGTSASLAISGFRSEDEADYYCASWDYTLSGWVFGGGTKLTVLG
12 | 0.048 nM | 333 | 2.3 | 3.2e-05 s⁻¹ | 660000 M⁻¹ s⁻¹ |  |  |  |  | C6-B47D3 (scFv, Combined B47 and D3 mutations on C6ML3-9) scFv: QVQLLQSGAELKKPGESLKISCKGSGYSFTSYWIAWVRQMPGKGLEYMGLIYPGDSDTKYSPSFQGQVTISVDKSVSTAYLQWSSLKPSDSAVYFCARHDVGYCTDRSCAKWPEWLDNWGQGTLVTVSSGGGGSGGGGSGGGGSQSVLTQPPSVSAAPGQKVTISCSGSSSNIGNNYVSWYQQLPGTAPKLLIYGHTNRPAGVPDRFSGSKSGTSASLAISGFRSEDEADYYCASWDYTLSGWVFGGGTKLTVLG
